{
  "source": "patent US9567577B2",
  "about": "“Expression vector comprising a polynucleotide encoding a modified glutamine synthetase and a method for preparing a target protein employing the same” (ARES TRADING S.A., priority 2012, dated 2017)",
  "molecules": {"B1": {"name": "modified GS protein: hamster glutamine synthetase (SEQ ID NO. 4) with glycine at position 299 substituted with arginine (protein, listed as Cricetulus longicaudatus)", "chain": "MATSASSHLNKNIKQMYLCLPQGEKVQAMYIWVDGTGEGLRCKTRTLDCEPKCVEELPEWNFDGSSTFQSEGSNSDMYLSPVAMFRDPFRRDPNKLVFCEVFKYNRKPAETNLRHSCKRIMDMVSNQHPWFGMEQEYTLMGTDGHPFGWPSNGFPGPQGPYYCGVGADKAYGRDIVEAHYRACLYAGVKITGTNAEVMPAQWEFQIGPCEGIRMGDHLWVARFILHRVCEDFGVIATFDPKPIPGNWNGAGCHTNFSTKAMREENGLKHIEEAIEKLSKRHRYHIRAYDPKGGLDNARRLTGFHETSNINDFSAGVANRSASIRIPRTVGQEKKGYFEDRRPSANCDPFAVTEAIVRTCLLNETGDEPFQYKN"}},
  "tested_on": "CHO K-1 cells",
  "assay": "TNFR-Fc expression level by ELISA of culture broth of CHO K-1 cells transfected with the expression vectors",
  "type": "cell-based",
  "settings": "inferred from TNFR-Fc expression under MSX",
  "experimental": "In order to compare the productivity of TNFR-Fc fusion protein between the GS and DHFR gene expression systems, each of the expression vectors constructed in Example 4 was introduced into CHO K-1 cells so as to prepare each transformant.\nIn detail, CHO K-1 cells were cultured in a DMEM/F12 medium supplemented with 10% FBS, and 3 to 4×10^5 cells/well were inoculated into a 6 well-plate, followed by cultivation overnight. When the cells reached 80 to 90% confluence, each of the expression vectors was introduced thereto.\nTo achieve this, 4 μg of each of the expression vectors constructed in Example 4 and 250 μl of Opti-MEM were mixed with each other, and separately, 10 μl of Lipofectamine 2000 (Invitrogen) and 250 μl of Opti-MEM were mixed with each other. Then, each mixture was left at room temperature for 5 minutes. Subsequently, the mixtures were mixed with each other, and left at room temperature for 20 minutes.\nThereafter, the culture medium in the 6-well plate was replaced with 2 ml of Opti-MEM I media, and 500 μl of the final mixture was added to each well of the 6-well plate, followed by cultivation at 37° C. for 4 to 6 hours. The medium was replaced with the original culture medium (DMEM/F12 medium supplemented with 10% FBS), followed by further cultivation overnight. […]",
  "data": [
    {"molecule": "B1", "values": [
      {"measurement": "sensitivity to GS inhibitors compared with wildtype GS protein", "value": "enhanced sensitivity"}
    ]}
  ]
}
